{
  "source": "paper PMC11908486",
  "molecular_target": "bACE2_(Ra5538)-Fc (Rhinolophus affinis)",
  "experiment": "BLI",
  "data": [
    {"substance": "SARS-CoV-2-RBD-monomer (from UniProt P0DTC2) (domain or fragment)", "values": [
      {"measurement": "Kd", "value": 705, "unit": "nM"}
    ]}
  ]
}
